Tested on: peptide library, one residue held at a place counted from the Y acceptor
Assay: relative phosphorylation of the sub-library (ratio to the mean residue at this position); higher = residue favoured
Procedure, shortened: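 Purified recombinant kinases were given 50 μM ATP with γ-32P-ATP and biotinylated Tyr-centred peptide library mixtures for 90 min in 384-well plates. Peptides bound to streptavidin membranes were rinsed and quantified by phosphorimaging, and intensities were normalized per position by the sum of the 18 randomized residues (16 with the Ser/Thr-free library) and multiplied by that number. The reported values are phosphorylation relative to the mean randomized residue.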

Sequence of ROS1, construct: aa1883-end, human (P08922 1883-2347, looked up): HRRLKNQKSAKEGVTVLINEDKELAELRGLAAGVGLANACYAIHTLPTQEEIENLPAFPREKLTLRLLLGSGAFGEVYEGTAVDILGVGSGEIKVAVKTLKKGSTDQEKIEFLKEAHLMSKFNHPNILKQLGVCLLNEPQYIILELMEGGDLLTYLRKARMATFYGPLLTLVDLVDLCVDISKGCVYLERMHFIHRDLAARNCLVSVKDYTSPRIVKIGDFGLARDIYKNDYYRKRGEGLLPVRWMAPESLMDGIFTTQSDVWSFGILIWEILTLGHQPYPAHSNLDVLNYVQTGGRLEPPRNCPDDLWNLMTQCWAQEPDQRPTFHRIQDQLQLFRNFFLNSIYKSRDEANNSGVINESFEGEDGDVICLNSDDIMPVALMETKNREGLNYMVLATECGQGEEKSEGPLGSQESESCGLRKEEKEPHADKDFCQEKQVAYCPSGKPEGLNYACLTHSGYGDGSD

ROS1, construct: aa1883-end, human (from UniProt P08922)
relative phosphorylation
Details | at +1 | at +2 | at +3 | at +4 | at +5 | at -1 | at -2 | at -3 | at -4 | at -5
A fixed | 1.4 | 0.764 | 0.709 | 0.96 | 0.93 | 1.04 | 1.06 | 0.892 | 1.22 | 1.17
D fixed | 0.482 | 0.396 | 0.211 | 0.611 | 0.583 | 1.09 | 0.882 | 0.994 | 1.09 | 0.993
E fixed | 0.947 | 0.547 | 0.174 | 0.772 | 0.512 | 1.09 | 1.1 | 1.04 | 1.18 | 0.873
F fixed | 1.06 | 1.19 | 1.65 | 1.19 | 1.47 | 0.882 | 0.738 | 0.932 | 0.878 | 0.868
G fixed | 0.696 | 0.581 | 0.722 | 1.09 | 1.1 | 0.835 | 1.2 | 1.2 | 1.36 | 1.31
H fixed | 1.07 | 0.954 | 1.67 | 1.13 | 0.93 | 1.21 | 1.07 | 1.09 | 0.888 | 0.99
I fixed | 1.33 | 0.963 | 1.57 | 0.865 | 0.776 | 1.11 | 0.797 | 0.727 | 0.827 | 0.878
K fixed | 0.501 | 1.3 | 0.858 | 1.27 | 1.3 | 0.592 | 1.01 | 0.968 | 1.04 | 1.08
L fixed | 1.37 | 1.41 | 1.49 | 0.918 | 0.831 | 1.33 | 0.872 | 0.863 | 0.995 | 0.882
M fixed | 1.36 | 1.17 | 1.33 | 1.07 | 0.873 | 0.975 | 0.733 | 0.828 | 0.855 | 0.922
N fixed | 0.551 | 1.04 | 0.581 | 0.88 | 0.981 | 1.29 | 1.1 | 1.2 | 0.935 | 1.05
P fixed | 0.446 | 0.904 | 0.532 | 0.972 | 1.64 | 1.45 | 1.29 | 1.23 | 1.19 | 1.24
Q fixed | 1.09 | 0.94 | 0.669 | 1.14 | 0.958 | 0.964 | 1.16 | 0.915 | 1.11 | 0.963
R fixed | 0.649 | 1.31 | 1.07 | 1.31 | 1.25 | 0.533 | 1.1 | 1.09 | 0.982 | 1.12
S fixed | 1.26 | 1.01 | 0.793 | 0.979 | 1.2 | 0.975 | 1.18 | 1.17 | 0.898 | 0.967
T fixed | 1.25 | 0.937 | 0.922 | 0.87 | 0.894 | 0.906 | 1.02 | 1.07 | 0.724 | 0.93
V fixed | 1.42 | 1.08 | 1.27 | 0.988 | 0.622 | 0.976 | 0.906 | 0.824 | 0.859 | 0.879
W fixed | 1.1 | 1.5 | 1.77 | 0.989 | 1.16 | 0.762 | 0.774 | 0.976 | 0.972 | 0.891
pThr fixed | 0.802 | 0.447 | 0.162 | 0.305 | 0.359 | 0.848 | 0.859 | 0.877 | 0.86 | 0.871
pTyr fixed | 1.06 | 0.646 | 0.306 | 0.529 | 0.409 | 1.74 | 1.03 | 1.15 | 1.09 | 0.896

SRC, construct: Full length, human (from UniProt P12931)
relative phosphorylation
Details | at +1 | at +2 | at +3 | at +4 | at +5 | at -1 | at -2 | at -3 | at -4 | at -5
A fixed | 1.71 | 1.04 | 0.531 | 0.882 | 1.03 | 0.537 | 1.09 | 0.87 | 1.12 | 1.01
D fixed | 0.651 | 0.589 | 0.472 | 0.783 | 0.787 | 0.691 | 1.57 | 1.93 | 1.48 | 1.36
E fixed | 1.43 | 1.36 | 0.454 | 0.876 | 0.704 | 0.984 | 1.82 | 2.66 | 1.68 | 1.23
F fixed | 0.696 | 1.21 | 3.63 | 1.19 | 1.24 | 0.688 | 0.649 | 0.959 | 1.2 | 1.03
G fixed | 3.59 | 0.728 | 0.679 | 1.29 | 1.06 | 0.492 | 1.2 | 0.937 | 1.15 | 1.16
H fixed | 0.667 | 0.556 | 0.874 | 0.983 | 0.891 | 0.504 | 0.917 | 0.842 | 0.875 | 0.871
I fixed | 0.83 | 1.39 | 2.12 | 0.89 | 0.817 | 4.34 | 0.76 | 0.663 | 0.902 | 0.826
K fixed | 0.229 | 0.535 | 0.369 | 0.982 | 1.06 | 0.229 | 0.522 | 0.462 | 0.566 | 0.758
L fixed | 0.605 | 0.987 | 1.36 | 0.876 | 1.05 | 1.6 | 0.878 | 0.694 | 0.954 | 0.899
M fixed | 1.09 | 1.09 | 0.913 | 1.19 | 0.87 | 0.764 | 0.657 | 0.765 | 0.91 | 0.901
N fixed | 0.456 | 0.648 | 0.407 | 0.737 | 0.725 | 0.294 | 1.17 | 1.18 | 0.793 | 1.09
P fixed | 0.274 | 0.7 | 0.453 | 0.931 | 1.49 | 1.11 | 1.26 | 0.814 | 1.17 | 1.21
Q fixed | 0.764 | 0.802 | 0.416 | 1.08 | 0.851 | 0.378 | 1.11 | 1.01 | 0.941 | 0.976
R fixed | 0.297 | 0.685 | 0.637 | 1.14 | 1.24 | 0.213 | 0.598 | 0.541 | 0.673 | 0.808
S fixed | 1.04 | 1.67 | 0.626 | 0.932 | 1.15 | 0.385 | 1.18 | 0.971 | 0.797 | 0.955
T fixed | 0.976 | 1.5 | 0.709 | 0.94 | 0.926 | 1.28 | 0.896 | 0.901 | 0.692 | 0.848
V fixed | 1.14 | 1.39 | 1.5 | 0.919 | 0.947 | 2.86 | 0.834 | 0.664 | 0.784 | 0.82
W fixed | 1.55 | 1.13 | 1.84 | 1.39 | 1.16 | 0.651 | 0.886 | 1.14 | 1.31 | 1.27
pThr fixed | 1.52 | 1.76 | 0.528 | 0.686 | 0.645 | 2.28 | 1.83 | 1.46 | 1.3 | 1.37
pTyr fixed | 3.88 | 2.03 | 0.798 | 1.32 | 0.829 | 1.27 | 1.55 | 1.66 | 1.97 | 1.46

From the supplement of paper PMC11136658
